The target in experiment [1] is T1, MCV trLT and sT (large T and small T antigens of Merkel cell polyomavirus, shared exon 1) peptide on … (human).
T1 peptide: KLLEIAPNC
Description: cytokine release.

Experiment [2] has as its target T2, MCV trLT (truncated large T antigen of Merkel cell polyomavirus) peptide on HLA-A*02:01 (human).
T2 peptide: SMFDEVDEA
Description: cytokine release.

B1: KLL-85 (TCR, V domains shown)
Valpha: GQQLNQSPQSMFIQEGEDVSMNCTSSSIFNTWLWYKQDPGEGPVLLIALYKAGELTSNGRLTAQFGITRKDSFLNISASIPSDVGIYFCAGQLNQGAQKLVFGQGTRLTINP
Vbeta: DAGVIQSPRHEVTEMGQEVTLRCKPISGHNSLFWYRQTMMRGLELLIYFNNNVPIDDSGMPEDRFSAKMPNASFSTLKIQPSEPRDSAVYFCASSFYSADTQYFGPGTRLTVL
Take B1: the binding result in experiment [1] is on record as “recognises”.

B2: SMF-72 (TCR, V domains shown)
Valpha: AQTVTQSQPEMSVQEAETVTLSCTYDTSESDYYLFWYKQPPSRQMILVIRQEAYKQQNATENRFSVNFQKAAKSFSLKISDSQLGDAAMYFCAYRGTSGTYKYIFGTGTRLKVLA
Vbeta: DTGVSQDPRHKITKRGQNVTFRCDPISEHNRLYWYRQTLGQGPEFLTYFQNEAQLEKSRLLSDRFSAERPKGSFSTLEIQRTEQGDSAMYLCASSKLAGKNIQYFGAGTRLSVL
Consider B2, for which the binding result in experiment [2] was “recognises”; in experiment [1], “no recognition”.

B3: SMF-48 (TCR, V domains shown)
Valpha: AQTVTQSQPEMSVQEAETVTLSCTYDTSESNYYLFWYKQPPSRQMILVIRQEAYKQQNATENRFSVNFQKAAKSFSLKISDSQLGDTAMYFCAFMKRGNRDDKIIFGKGTRLHILP
Vbeta: GAVVSQHPSWVICKSGTSVKIECRSLDFQATTMFWYRQFPKQSLMLMATSNEGSKATYEQGVEKDKFLINHASLTLSTLTVTSAHPEDSSFYICSASPTSGRRTQYFGPGTRLTVL
In the case of B3, the binding result in experiment [2] is “recognises”; in experiment [1] it was “no recognition”.

Source of the values: patent publication US20190359677A1 (published 2019).
